Assay results published in paper PMC11548876.

Legend:
[1] = target: CcBurs-β (Cacopsylla chinensis); assay: non-reduced versus reduced SDS-PAGE with western blot; His-tagged subunits expressed separately or co-expressed in HEK293T, collected from the medium and purified on Ni-NTA; 12% SDS-PAGE (non-reduced) and 15% SDS-PAGE (reduced), anti-His blot
[2] = target: CcBurs-α (Cacopsylla chinensis); assay: as above

Substance	stoichiometry N [1]	stoichiometry N [2]
CcBurs-β (natural protein)	2	
CcBurs-α (natural protein)		2
